Laboratory results from publication PMC3656785.

molecular target: VipB on the GAL4 DNA-binding domain (pGBKT7) (V. cholerae); assay: two-hybrid; conditions: not given

Substance	relative β-gal activity [%]
VipA V110A fused to the GAL4 activation domain (pGADT7) (natural protein)	74.6
VipA D104A/V106A fused to the GAL4 activation domain (pGADT7) (natural protein)	64.1
VipA D104A fused to the GAL4 activation domain (pGADT7) (natural protein)	92.7
VipA V106A fused to the GAL4 activation domain (pGADT7) (natural protein)	92.4
VipA fused to the GAL4 activation domain (pGADT7) (natural protein)	100
VipA D104A/V106A/V110A fused to the GAL4 activation domain (pGADT7) (natural protein)	48.8

molecular target: VipB fused to the zinc finger DNA-binding domain of murine Zif268; assay: not given; conditions: parent: est. 680; read off a plot

Substance	response [Miller units]
VipA fused to the ω subunit of E. coli RNAP D104A	460
VipA fused to the ω subunit of E. coli RNAP D104A; V106A; V110A	120
VipA fused to the ω subunit of E. coli RNAP V110A; L113A	120
VipA fused to the ω subunit of E. coli RNAP V110A	430
VipA fused to the ω subunit of E. coli RNAP Q109A; V110I	710
VipA fused to the ω subunit of E. coli RNAP E112A	720
VipA fused to the ω subunit of E. coli RNAP V106A	460
VipA fused to the ω subunit of E. coli RNAP D104A; V106A	230
VipA fused to the ω subunit of E. coli RNAP L113A	490
VipA fused to the ω subunit of E. coli RNAP D104A; V106A; V110A; L113A	90
VipA fused to the ω subunit of E. coli RNAP P111A	590
VipA fused to the ω subunit of E. coli RNAP Q109A	630
VipA fused to the ω subunit of E. coli RNAP S108A	720
